According to the supplement of paper PMC12042874:
± gives the uncertainty stated by the source.

Test: amyloid nucleation score (Sup35N fusion, yeast selection) (log enrichment); library NNK1; higher = more nucleation; inactive = no reads after selection
In short: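 Nucleation score is defined as the DiMSum log enrichment of output over input reads, with centring on the mode score of non-aggregating sequences. A minimum of 100 input reads was required for each sequence. Reads came from Illumina sequencing of plasmid inserts from psi-negative yeast expressing Sup35N fused to peptides of 20 random codons, induced with 100 μM copper sulfate for 24 hours and grown 7 days at 30°C on medium lacking adenine and uracil.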

Substance | amyloid nucleation score
SLWNSYLETRV | 1.14 ± 0.69
SCSGSRMRELAAVYTVIIEY | -1.04 ± 1.1
MLWRYKRCNFARMFNLRVYV | -0.822 ± 0.65
VDISVAYRC | -1.59 ± 1.3
YNCFMFAMFARSDSYMGIAS | 0.597 ± 0.26
YFYDTWGA | -0.235 ± 0.47
IRSAN | 0.918 ± 1.1
LYASASADHSRQRREGTPVL | -0.54 ± 0.59
RGNWIRS | -0.533 ± 0.77
GSGVDSRVSCKKFILSLVGA | -0.39 ± 1.7
STVNGICSRKLAIRELFSNH | -0.063 ± 0.26
TNCDVVNSCTFGGNGDY | 0.151 ± 1.1
RFNWFL | -0.285 ± 0.86
LHLECLWCLARTSYF | 8.244 ± 0.045
NCRFRVVVRKSGTLLPVWVP | 0.542 ± 1
CKTGGFYRSVGRTTRFCHVE | -0.321 ± 0.39
VRYYMALMRWDDNVNSMCMG | inactive
GDMFVAKCYSRGDSQISLMF | 0.368 ± 0.37
YRDTVGVYYRFIRGYWMCTW | -0.396 ± 0.42
FSVKFVSNPFSQLLSARPWW | -0.603 ± 0.34
FLGPIAIVGRHLMICIMQSH | 0.855 ± 0.43
TPFGSVMVGYWQPIPLRDLG | 0.634 ± 0.54
SKRMNGRNP | 0.153 ± 0.47
GVADMAVRGQCSHYSVAWST | -1.07 ± 0.82
RVWYGFYCELITTPRFASGV | -0.322 ± 1.7

Substance | amyloid nucleation score
IILFSSVGCSMCMTSGLEGF | 6.964 ± 0.066
LADGLTVRSKYYISVNSVGS | -0.16 ± 0.4
YILSSLPFRHLLGVNICFTA | -0.364 ± 0.31
EGSIMRGWLFICYNLF | -0.244 ± 0.93
CTGPMD | 0.055 ± 0.57
HQIFIWVVGLGTFETPRNHK | 5.96 ± 0.066
YLFGGSWDCGLYISGIPCWS | 1 ± 0.48
VDVQGICRHISFNIAGA | -0.035 ± 0.72
NADCVTMVYSKLVWLPVEDT | 0.458 ± 0.57
PLSILRKMAGVVSGCTAPTS | 0.663 ± 0.7
QFYHLYCHKIYCFRGEFRRR | 1.83 ± 0.46
TTIQGRPVNVAAFRTTLLTR | -1.11 ± 2.7
LSATGGMGIRF | -0.318 ± 1.2
DPQTGDGVLAMNKWEPYRGL | 0.697 ± 0.48
DWSRQFYMFVNVKARLFRGT | -0.05 ± 0.69
IFRSFLDG | -0.437 ± 0.3
TAIWTSIIDL | 0.96 ± 0.42
GWSSFWGPLVCARVWRRIGE | 0.433 ± 0.54
NNQSTGWCETN | inactive
KFIVVS | 0.507 ± 0.62
NSRSLFFYDSYVAGWYN | 0.542 ± 0.31
YLAQL | 0.558 ± 0.43
RYVETNSGAE | 0.669 ± 0.43
CLMLAGRFIC | -0.422 ± 0.56
LLAPAS | 0.032 ± 0.35

Substance | amyloid nucleation score
LNFIHNGM | -0.444 ± 1.9
WDFFYLMSMLPRDEVGFL | 0.756 ± 0.46
SCGNVGQRVVNIQYVGNSRF | 6.34 ± 0.077
WDTPFFCPSRNFRRATGPYP | 0.983 ± 0.53
YRDFGGN | 0.076 ± 0.24
LWLRGLVSFRQSHGRTGKSS | -0.126 ± 0.33
TGLWNRIEVPVDKTEAKQPV | 0.076 ± 0.42
DLSDLFLYHFVIWTSVNYSY | -0.562 ± 1.1
QGRGMDNVIYVEVRMRDCRR | 2.04 ± 0.24
CVLCDGYFKSERLLNGWVM | -0.641 ± 0.52
TSQVSGRHVVSIDWTIWLSL | 0.616 ± 0.66
VPNASLSWISFISHLFYMSS | 0.034 ± 0.37
LRNRMGNDIISILITIPKIV | 0.217 ± 0.34
KSVVSFMTFPSLQEHKVVLI | 0.33 ± 0.53
RLASYHITVYRHTRSIVQ | 0.612 ± 0.29
FLYPVHLVLHCSTSYMQTDS | 0.241 ± 1.2
SNRGRNLGSYCVGNYFGCFT | -0.224 ± 1.7
FDSRRGEGALMSNDSSCERG | -0.185 ± 0.69
TIFAWAKHGQSNTVSRLGGF | 0.118 ± 0.44
TYYNLYSVRGGCFAHDVLAC | 0.234 ± 0.31
DPADAPMITRNVGTWAKQVP | 0.324 ± 0.97
LDARKKARMWRNTIDMDELV | inactive
FKYSGRCWGANECIKNYNYV | 0.07 ± 0.39
KRNRYTKGTHHTSFMNFYFC | 8.37 ± 0.066
YLWLYVLSRTWVFNKHPSPI | -0.543 ± 0.41

Substance | amyloid nucleation score
MKCYVFLKNWMWLVDYLDSI | -0.991 ± 2.4
ILSKVCGFSVARIWCSCISI | 6.65 ± 0.088
MIKSPTVKGFRMLCSVRGRD | -0.284 ± 0.44
ESMDGFARR | 0.654 ± 0.67
KTTCIDTIR | 0.565 ± 0.43
KHYIKRASDGHAFSYVHLSL | 0.068 ± 0.38
ARRASVEFSYSTLERGMWRC | 1.9 ± 0.18
SDKEVVSLQEVHTQSEGSEG | 0.174 ± 0.27
YGRSP | 0.597 ± 0.46
APVVGTNSTTGEYSLTPSSW | 0.741 ± 0.41
VLSFVLDYCNAEV | 0.653 ± 0.45
TVLDFCFWYAGVVFKYARFV | -0.932 ± 0.39
WFSTDGWKNMSDSLASWSCY | 0.863 ± 0.42
SDPCKCTYCSYLSLDITLYA | 0.05 ± 0.23
DRAGERMGIR | 0.13 ± 0.28
ETFPYMRMYARALSRT | 0.369 ± 0.39
DIVRWLCPHRTK | 1.23 ± 0.93
MFVFFSTMSIR | inactive
WLTNWFEPRWSLVMQSVRCP | -0.121 ± 0.44
VAMRIWLVNACLGG | 0.092 ± 0.63
GFSSMRYEGFGTGKCVDFLS | 0.281 ± 0.22
LLCSKCGFTDQFQS | -1.09 ± 1.2
QALYSCDDYRGYRTSQCPRS | -1.13 ± 1.9
CYRIDGSYYQLSCSYVYVRV | -0.837 ± 1.1
LLVVSYFITSLSTCMFGYWK | -0.411 ± 0.63

Substance | amyloid nucleation score
SFNVNLGSHRDVMIVFSF | 6.24 ± 0.064
VDNFIYLVNYLHTRNFISRH | -0.287 ± 0.35
AWIDCVSTNTTLDIPSLGP | 0.402 ± 0.24
HSKRYCGACDLGYLCYRCNI | -0.333 ± 0.24
GKNWSFLTSYFCWFTLKIH | 1.4 ± 0.35
SCVYNWFIKVLPKVSTMSGD | 0.41 ± 0.52
MRRHLGHLTLESGNHGCLQA | inactive
TTGSGSRSNWWYGSPNYYLS | -0.867 ± 0.53
RRSLYYGITIN | -0.337 ± 0.32
TLTVRRCSCQVQWGLRMFHL | -0.653 ± 1.4
HIQLIYVTIVLESRLSWWRI | 0.934 ± 0.53
VCAEWGAVAPGIGKEYQQRM | 2.04 ± 0.32
YYNFLLIIFNCCKVMS | 3.5 ± 0.11
DVQQPPMDSISH | 1.17 ± 0.57
YREEEILRVVNLTIFAGPGM | -0.55 ± 0.39
SVLFNAAFFKFQNRF | 0.5 ± 0.6
LKRDSFWVLIKWTRLDMGVS | 0.056 ± 0.37
DFWSYDDVVFGRC | 1.3 ± 0.6
SLVCNMFLSILRYFGFLNRS | inactive
SVIAVSLETQVIAWVRYYPK | -0.315 ± 0.55
LYHRSSLGMVSVVGDSMSDT | 0.596 ± 1.2
VNMRASSSMLTTVVAFIFPG | 6.521 ± 0.047
PTTFVENIAWRRGSTSCLCG | inactive
NYYLVCCCKREQRLCTVGIT | 6.831 ± 0.064
SRRWGLN | inactive

Substance | amyloid nucleation score
FRRHYNKMNFFVGFRERMCG | -0.262 ± 0.49
KGRSCLGRLRLVGQMRPKYN | 0.366 ± 0.76
IYTSLCQRGGMVMHESKYCC | 0.624 ± 0.65
MLFRYRSPHTVWLIRLCMKQ | 0.839 ± 0.56
TSCFCI | -0.133 ± 0.33
CLISP | inactive
PIIVDRCCFDYIRRVNVLYN | 0.677 ± 0.48
VIAKRPSMWGSKRNFRLVRV | 0.512 ± 0.88
ACHQGGMTSPNTRSTLFRVW | 0.8 ± 0.51
WVGQVLGREENCASASSFSE | -1.89 ± 2.7
SSWFFYQNIAVSYSNKAINF | 0.379 ± 0.17
TYIYSTILEVFYLSLGHVII | 0.775 ± 0.35
IIGRLNLKMISGLI | 2.15 ± 0.58
AVRDDMDY | -0.059 ± 0.22
FVLFRLFEFASNIRVTFFF | -0.833 ± 0.62
HKCDSVKVGGSCNKTAYSRC | 0.787 ± 0.59
VGFVATNCRWSCFS | 5.5 ± 0.11
FWIEGP | 0.564 ± 0.9
RLPWLRAQNANLVLLLVNRR | 4.9 ± 0.074
NEWVCLS | -0.179 ± 0.36
LVDSPCQRSYTRRPHTHWR | 0.15 ± 0.34
RFVWKDDTHQAIGTFLMSQG | 1 ± 0.54
LMWSMPNGTSYGNGPVEWTG | -0.515 ± 0.81
LGVIYLRLWFQSGGRQVLEG | 0.089 ± 0.42
RKSDEGMKSPIGREIMGKSM | 0.431 ± 0.9

Substance | amyloid nucleation score
YSSGYLWFFIGTS | -1.38 ± 1.7
TCYGQAVFLTDCSGRWDIYE | 3.34 ± 0.16
GLWLQL | 0.216 ± 0.26
VHATLLNHA | 0.898 ± 0.64
GVHRWVRSARLEAVHFGAGW | 1.45 ± 0.84
QMDVRDFYSRVSGGGGYQMH | -0.074 ± 0.61
CALVYGWTEHDV | 1.44 ± 0.64
HKLFNALNPKKG | 0.532 ± 1.2
MLVAFAYFFGSHVRHWGFVW | 0.224 ± 0.33
PNTSEWTDWCRVLVEWGQGS | 0.394 ± 0.18
HIKHSMMFGTYTK | -1.2 ± 0.72
DWSIDILYSVIRSPVNLINS | -1.01 ± 0.52
VCMTTLCWISSGVGFLHWSS | 3.98 ± 0.068
DFGFLF | 0.851 ± 0.37
VWMVMSYPDHTLVLLLTG | -1.33 ± 0.57
RLCIVLSRHMPYTDRMLVMP | 0.259 ± 0.26
AQTWGESKTLPENLANYDAY | 0.241 ± 0.56
NFACVFTSTSRMCRH | 3.85 ± 0.1
HLRIGLNDVSLIISLTDKRT | -1.07 ± 0.47
RPHECRSWAPVRALSGDAHL | 2.91 ± 0.13
PDFIHFY | 0.182 ± 0.38
